Measurements published in paper doi:10.1101/216143.

Target: unmodified R1810 peptide of the RNAP2-CTD (human)
Assay: MST

Substance “recombinant PADI2 (peptidyl arginine deiminase 2) (from UniProt Q9Y2J8 1-665) (enzyme)” has a Kd of 220 nM.
